Here are results for three molecules from paper doi:10.1101/2023.01.24.525215.

Holding throughout (assay): EMSA
Background: A gel shift assay detects complexes by their altered migration in electrophoresis.

In one data set the target is T1, WRKY53 (Arabidopsis thaliana, UniProt Q9SUP6 1-324).
T1 sequence: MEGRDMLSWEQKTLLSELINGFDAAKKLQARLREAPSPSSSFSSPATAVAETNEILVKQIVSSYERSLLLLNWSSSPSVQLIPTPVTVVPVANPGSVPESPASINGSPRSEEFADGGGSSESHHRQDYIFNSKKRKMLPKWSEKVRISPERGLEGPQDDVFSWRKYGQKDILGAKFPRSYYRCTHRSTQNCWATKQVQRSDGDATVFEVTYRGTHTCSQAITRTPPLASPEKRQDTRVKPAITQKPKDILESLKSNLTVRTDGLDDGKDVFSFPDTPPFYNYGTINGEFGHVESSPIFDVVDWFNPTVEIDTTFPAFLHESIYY

For a further data set, the target named is T2, TGA5 (Arabidopsis thaliana, UniProt Q39163 1-330).
T2 sequence: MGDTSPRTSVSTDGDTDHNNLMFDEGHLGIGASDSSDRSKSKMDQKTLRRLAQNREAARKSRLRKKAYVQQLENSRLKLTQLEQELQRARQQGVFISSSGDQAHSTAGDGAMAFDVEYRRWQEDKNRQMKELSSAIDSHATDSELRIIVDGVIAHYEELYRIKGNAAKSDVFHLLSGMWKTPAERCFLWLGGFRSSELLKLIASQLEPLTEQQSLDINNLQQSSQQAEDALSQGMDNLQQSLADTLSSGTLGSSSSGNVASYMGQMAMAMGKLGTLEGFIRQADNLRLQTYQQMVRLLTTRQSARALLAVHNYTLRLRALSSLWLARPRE

The target in a further data set is CAM5 (Arabidopsis thaliana, UniProt Q682T9 1-149).

B1: PDF1.2 as-1 probe (dsDNA)
DNA 1: ATGTTGTATTTGTTCGACGATGACGAAGGT
DNA 2: ACCTTCGTCATCGTCGAACAAATACAACAT
As to B1, the binding result with WRKY53 is recorded as “no binding”; in the data set with TGA5 it was “binds”.

B2: PDF1.2 w-box probe (dsDNA)
DNA 1: ATAATTATTCTTGACTGATGTATGCATATA
DNA 2: TATATGCATACATCAGTCAAGAATAATTAT
As for B2, the binding result with CAM5 is on record as “no binding”; with WRKY53, “binds”.

B3: PR1 w-box probe (dsDNA)
DNA 1: TTTATTTGAAAATTGACTGTAGATATAAAC
DNA 2: GTTTATATCTACAGTCAATTTTCAAATAAA
As to B3, the binding result with CAM5 was “no binding”; in the data set with WRKY53 it was “binds”; in the data set with TGA5, “binds”.
